Results on four substances are retold here after article PMC7757244.

The target of the assay is Mut FcγRIIIa (human) (UniProt P08637). As to the kind of experiment: SPR.
Sequence of UniProt P08637 (P08637 17-254): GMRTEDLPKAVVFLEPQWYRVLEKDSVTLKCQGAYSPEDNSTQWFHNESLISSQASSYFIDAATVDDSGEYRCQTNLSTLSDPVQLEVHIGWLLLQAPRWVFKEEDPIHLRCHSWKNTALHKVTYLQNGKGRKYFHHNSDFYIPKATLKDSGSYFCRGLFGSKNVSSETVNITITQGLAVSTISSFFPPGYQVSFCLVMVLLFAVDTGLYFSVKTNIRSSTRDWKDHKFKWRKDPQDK
On to Expi293-Rituximab (antibody), for which the Kd (in general, the free concentration of one partner at which half of the binding sites on the other are occupied at equilibrium, for simple one-to-one binding) worked out at 1.38 µM; the koff (in general, the first-order rate constant of dissociation) worked out at 0.0544 s⁻¹; the kon (as a rule, the rate constant with which the complex forms) is 39600 M⁻¹ s⁻¹.

The substance Expi293-Trastuzumab (antibody) came in with a Kd of 1.95 µM and a koff of 0.0583 s⁻¹.

For the substance ExpiCHO-Rituximab (antibody), the Kd amounted to 2.03 µM, the koff was found to be 0.0803 s⁻¹ and the kon came to 39900 M⁻¹ s⁻¹.

The substance ExpiCHO-Trastuzumab (antibody) returned a Kd of 2.52 µM, a koff of 0.0893 s⁻¹ and a kon of 36200 M⁻¹ s⁻¹.
